The nature of this data set: soluble on expression in E. coli; label from the status in PepcDB or PDB records.
Turning to “GSHMAPDCSQPLDVILLLDGSSSFPASYFDEMKSFAKAFISKANIGPRLTQVSVLQYGSITTIDVPWNVVPEKAHLLSLVDVMQREGGPSQIGDALGFAVRYLTSEMHGARPGASKAVVILVTDVSVDSVDAAADAARSNRVTVFPIGIGDRYDAAQLRILAGPAGDSNVVKLQRIEDLPTMVTLGNSFLHKLCSG”, the “soluble on expression in E. coli” value was “soluble”.
In the case of “MDDATEQEVFNRMQMTQFEEKRFELRETCPKCHQILSSELSRLWHQFVHMDAYNGFLDGKFQIQLPDFEFVRSNVIPCPFSTCSLLFLDLIDARFHYLLEHQSCQLFCCGVRFSDYKTALEHLQGTGSVETEAWDQQKHFLKPVYICNCCNRTWSSRSEYVAHLHGRDHMCPDPVCKYIFETNEKCIRHFFEQHYKHLFLDSRHLLLNYKDHMCVPHVNADFGTTRGFRATWQARIVNFLIEKS”, the “soluble on expression in E. coli” value is listed as “not soluble”.
For “MPQQNYLDELTPAFTSLLAIKEASRCLLCHDAPCSQACPAQTDPGKFIRSIYFRNFKGAAETIRENNALGAVCARVCPTEKLCQSGCTRAGVDAPIDIGRLQRFVTDFEQQTGMEIYQPGTKTLGKVAIIGAGPAGLQASVTLTNQGYDVTIYEKEAHPGGWLRNGIPQFRLPQSVLDAEIARIEKMGVTIKCNNEVGNTLTLEQLKAENRAVLVTVGLSSGSGLPLFEHSDVEIAVDFLQRARQAQGDISIPQSALIIGGGDVAMDVASTLKVLGCQAVTCVAREELDEFPASEKEFTSARELGVSIIDGFTPVAVEGNKVTFKHVRLSGELTMAADKIILAVGQHARLDAFAELEPQRNTIKTQNYQTRDPQVFAAGDIVEGDKTVVYAVKTGKEAAEAIHHYLEGACSC” the value was “not soluble”; for “MPTPPAASSLAAQMGESPAPLYARVKHMIALQIQNGTWPPHHRVPSESELVTQLGFSRMTINRALRELTVEGLLVRMQGVGTFVAEPKSQSALFEVHNIADEIAARGHRHTCKVMVLKEEAAGSERALALDMREGQRVFHSLIVHFENDIPVQIEDRFVNAQVAPDYLKQDFTLQTPYAYLSQVAPLTEGEHVVEAILAEADECKLLQIDAGEPCLLIRRRTWSGRQPVTAARLIHPGSRHRLEGRFTK”, “not soluble”; for “MCIHTIPYYSAKRRRIMDNQFFKNIEKKTGVKMQDVMNLAGSLQNANFKDENTVRSVINRVAQMANRRVPKELEDKIVESITSGKEKLDFGTISKMMDNKLEHHHHHH”, “not soluble”.
To “AVGNATQPLLVVEDSDEDFSTFQRLLQREGVVNPIYRCITGDQALDFLYQTGSYCNPDIAPRPAVILLDLNLPGTDGREVLQEIKQDEVLKKIPVVIMTTSSNPKDIEICYSYSISSYIVKPLEIDRLTETVQTFIKYWLDIVVLPEMG” belongs “soluble”; to “MNGYIINIRYQQMGRVIYMFFFAIFGIQDKNKHIGNCNNIVCPSCGRLSMYEVYKYYKYFHIFFLPIFKWDVRYIVKTSCCGCLYELDPLVGKEFEKNPSTEIREENLQRIDRYSPFKYCSNCRTEVPVEYSYCPYCGERLLEHHHHHH”, “not soluble”.
In the case of “MGRVDGLDKFKGLFDALEPKSEGQRELKEALLSDVDLVGVFGPTGTGKSLFSIVYGVSMTAEGRFRRVVLARPVIDVVTGRELTVMTDAQSYRRLAAEYLMDILSGFLGEERVREILSSDSLVLVDPHFLRGRTFDNSVIIVDDSQSMPPEAIVEIITRLGTGSKLIVIGDPVFQRTSEPGLDGASMAREILSNEPTAEVVDLGLKDIVRPGAKRGVKMLMELLMRRRTLNQAEKEVIEAARMHSPDADIITAVDLQDAKRKWGIESDHVPDVLVVVKEGHLGRFIGRGGERIEKIEGETGLRIRAIEHTLDLKEIVRAIHPVSWIHKHVIDFDFAGPQLKIKVSKEHMGPMLGQKGAHIRFLDEIVRKLLGVGVFVEEVEERRGRRRRR”, the “soluble on expression in E. coli” value was “not soluble”.
Regarding “MSEMSLIMLAAGNSTRFNTKVKKQFLRLGNDPLWLYATKNLSSFYPFKKIVVTSSNITYMKKFTKNYEFIEGGDTRAESLKKALELIDSEFVMVSDVARVLVSKNLFDRLIENLDKADCITPALKVADTTLFDNEALQREKIKLIQTPQISKTKLLKKALDQNLEFTDDSTAIAAMGGKIWFVEGEENARKLTFKEDLKKLDLPTPSFEIFTGNGFDVHEFGENRPLLLAGVQIHPTMGLKAHSDGDVLAHSLTDAILGAAGLGDIGELYPDTDMKFKNANSMELLKQAYDKVREIGFELINIDICVMAQSPKLKDFKQAMQSNIAHTLDLDEFRINVKATTTEKLGFIGRKEGMAVLSSVNLKYFDWTRL”, the “soluble on expression in E. coli” value was “soluble”.
Consider “MHSTPKRVLLAGATGLTGEHLLDRILSEPTLAKVIAPARKALAEHPRLDNPVGPLAELLPQLDGSIDTAFCCLGTTIKEAGSEEAFRAVDFDLPLAVGKRALEMGARHYLVVSALGADAKSSIFYNRVKGELEQALQEQGWPQLTIARPSLLFGPREEFRLAEILAAPIARILPGKYHGIEACDLARALWRLALEEGKGVRFVESDELRKLGK”, for which the “soluble on expression in E. coli” value is listed as “soluble”.
For “MGSDKIHHHHHHMNTSISASWGRYINAIPPRSGEAALAPLSSFVDGQCIYSFGERADQVYQVEFGAVRVYRLAANGRRQILAFHFGGNWFGLQSRDRHSSNAEAIGVTGVRCISLQEEPLFRPALFSAALDNVSAAQEHQLVIGRQSAIERVAAFLLEMSERSGYSRRFELSMSRVDVADYLALTVETVSRSLTKLKHRGFIELHGARGIELVGYRALQNLCL” the value was “not soluble”; for “MLQLTLESSFSNTLTVSELNSYVKSTLEEDFLLKRACIKGEISNCTLHKSGHVYFTLKDENSAIDCVMFKPYTKKLDFSPAEGMSVIIKGKVSLYTKTGKYQFYCNEMEKEGLGDLFIKFKKLKEKLESEGLFNEEYKQKIPKYPKNIGIITSPTGAAIRDIIKVTRNRNSSVNLIIYPAVVQGESAAKTVISGISELNKLEKIDLIIIARGGGSMEDLWCFNNESLARAIFESKKPVITGIGHETDFTISDFVSDLRAATPSNAAEIAIYNEYELKSMINNLERMLKNRMKTEISNRSYELDILYSKIEKNSPKSKIEKQKVHVDKIRAQMNHEIKNKISYEVKRFEKSYSLLNAYNPLNVLNKGYSIIQDENEKIISSKSSLNLENDVKITLKDGTVDAHITLKE”, “not soluble”.

Source of the values: the DeepSol protein solubility set.
